{"source": "paper doi:10.1101/2021.08.23.457419", "about": "(bioRxiv, 2021)", "key": {"[1]": {"molecular_target": "T1, SARS-CoV-2 main protease (M^pro), wild type (SARS-CoV-2, UniProt P0DTD1)", "assay": "cell-based or functional assay"}, "[2]": {"molecular_target": "T1, SARS-CoV-2 main protease (M^pro), wild …", "assay": "[…]"}}, "note": "Where no end group is shown, it is not given here.", "data": [{"binder": "YLQYAVLRHKRREC (also: cyclic, mode of cyclization not given here)", "note": "[cyclic peptide 1]", "values": [{"measurement": "IC50, inhibition of M^pro proteolytic activity (FRET substrate cleavage)", "setting": "[1]", "value": 70, "unit": "nM"}, {"measurement": "Ki", "setting": "[2]", "value": 14, "unit": "nM"}]}]}
